Data set [1] is described as follows: 3H-PGE2 ELISA (PGE2 binding affinity). The protocol: Alternatively, prostaglandin binding screen for antibodies or DVD-Ig molecules can be determined using a ^3H-PGE2 ELISA. Plates were coated at 50 μl/well with 5 μg/ml of goat anti-human IgG (Fc) (Thermo Scientific #31170, Hudson, N.H.) or goat anti-mouse IgG (Fc) (Thermo Scientific #31125, Hudson, N.H.) in PBS and incubated overnight at 4° C. The following day plates were flicked and blotted dry. Plates were then blocked with 200 μL/well of Superblock (Thermo Scientific #37515, Hudson, N.H.), for 1 hour at room temperature. Plates were flicked and blotted dry. Monoclonal antibodies were diluted to 0.04 μg/ml in PBST (Abbott Bioresearch Center, Worcester, Mass.)/10% Superblock and 50 uL of each antibody or DVD-Ig was added to each well of the pre-blocked ELISA plate at 2 ng/well and incubated for 1 hour at room temperature. Wells were washed 3 times with PBS+0.1% Tween-20. A serial 3 fold titration of ^3H-PGE2 (Perkin Elmer #NET-428, Waltham, Mass.) was prepared in PBST+10% Superblock. Fifty microliters of the ^3H-PGE2 solution was then added to each well of the plate and incubated for 1 hour at room temperature. Wells were washed 6 times with PBST+10% Superblock and 50 μL of scintillation fluid (Perkin Elmer #6013621, Waltham, Mass.) added to each well. Plates were read using the TopCount reader (Perkin Elmer, Waltham, Mass.) with a 5 minutes count delay. EC50 number was determined using GraphPad Prism 5 (GraphPad Software, La Jolla, Calif.).

For data set [2], the system named is PGE2 / human EP4 receptor in HEK293 Gα16 cells. As to the kind of experiment: EP4 bioassay (Ca++ flux, neutralization of PGE2). In kind it is cell-based. The settings on record: for IC50: EP4 assay. The protocol:
The ability of anti-PGE2 antibodies and anti-PGE2 containing DVD-Ig molecules to inhibit the cellular response of PGE2 was determined in a Ca++ flux assay in HEK293 Gα16 cells stably transfected with human EP4 receptor. Cells were plated in black/clear poly-D-lysine plates, (Corning #3667, Corning, N.Y.) and incubated with Ca++-sensitive dye (Molecular Devices) for 90 minutes. Stock PGE2 (in 200 proof ethanol) was diluted with FLIPR buffer (containing 1×HBSS (Invitrogen, Carlsbad, Calif.), 20 mM HEPES (Invitrogen, Carlsbad, Calif.), 0.1% BSA (Sigma, St. Louis, Mo.) and 2.5 mM Probenecid (Sigma, St. Louis, Mo.)). Anti-PGE2 antibodies, DVD-Ig molecules or isotype matched control antibodies were also pre-diluted in FLIPR buffer. 25 μl of PGE2 or pre-incubated PGE2/antibody mixture or pre-incubated PGE2/DVD-Ig molecule mixture was added to the wells pre-plated with cells. A dose response of PGE2 was done by a serial titration of PGE2 and was determined using FLIPR1 or Tetra (Molecular Devices). EC50 was determined using GraphPad Prism 5 (GraftPad Software, La Jolla, Calif.). […] Ca++ flux was monitored using FLIPR1 and data was analyzed using GraphPad Prism 5.
The ability of anti-PGE2 antibodies and anti-PGE2 containing DVD-Ig molecules to inhibit the cellular response of PGE2 was determined in a Ca++ flux assay using stably transfected human EP4 in HEK293 Gα16 cells. Cells were plated in black/clear Poly-D-Lysine plates, (Corning #3667) and incubated with Ca++-sensitive dye (Molecular Devices) for 90 minutes. Stock PGE2 (in 200 proof ethanol) was diluted with FLIPR buffer (containing 1×HBSS, 20 mM HEPES, 0.1% BSA and 2.5 mM Probenecid). Anti-PGE2 antibodies, DVD-Ig molecules or isotype matched control antibodies were also pre-diluted in FLIPR buffer. 25 μl of PGE2 or pre-incubated PGE2/antibody mixture or pre-incubated PGE2/DVD-Ig molecule mixture was added to the wells pre-plated with cells. A dose response of PGE2 was done by a serial titration of PGE2 and was determined using FLIPR1 or Tetra (Molecular Devices). EC50 was determined using GraphPad Prism 5. […] Ca++ flux was monitored using FLIPR1 and data was analyzed using GraphPad Prism 5.

In data set [3] the test system is target antigen. As to the kind of experiment: BIACORE affinity determination of parent antibodies and DVD-Ig constructs. In kind it is binding. As to conditions: antigen IL-15, 25° C. As to the method: The BIACORE assay (Biacore, Inc, Piscataway, N.J.) determines the affinity of antibodies or DVD-Ig with kinetic measurements of on-rate and off-rate constants. […] All chemicals are obtained from Biacore® AB (Uppsala, Sweden) or otherwise from a different source as described in the text. For example, approximately 5000 RU of goat anti-mouse IgG, (Fcγ), fragment specific polyclonal antibody (Pierce Biotechnology Inc, Rockford, Ill.) diluted in 10 mM sodium acetate (pH 4.5) is directly immobilized across a CM5 research grade biosensor chip using a standard amine coupling kit according to manufacturer's instructions and procedures at 25 μg/ml. Unreacted moieties on the biosensor surface are blocked with ethanolamine. Modified carboxymethyl dextran surface in flowcell 2 and 4 is used as a reaction surface. Unmodified carboxymethyl dextran without goat anti-mouse IgG in flow cell 1 and 3 is used as the reference surface. For kinetic analysis, rate equations derived from the 1:1 Langmuir binding model are fitted simultaneously to association and dissociation phases of all eight injections (using global fit analysis) with the use of Biaevaluation 4.0.1 software. Purified antibodies or DVD-Ig are diluted in HEPES-buffered saline for capture across goat anti-mouse IgG specific reaction surfaces. Antibodies or DVD-Ig to be captured as a ligand (25 μg/ml) are injected over reaction matrices at a flow rate of 5 μl/min. The association and dissociation rate constants, kon (M^−1 s^−1) and koff (s^−1) are determined under a continuous flow rate of 25 μl/min. Rate constants are derived by making kinetic binding measurements at different antigen concentrations ranging from 10-200 nM. The equilibrium dissociation constant (M) of the reaction between antibodies or DVD-Igs and the target antigen is then calculated from the kinetic rate constants by the following formula: KD=koff/kon. Binding is recorded as a function of time and kinetic rate constants are calculated. In this assay, on-rates as fast as 10^6 M^−1 s^−1 and off-rates as slow as 10^−6 s^−1 can be measured.
A general note: SPR reads the build-up and loss of mass on a sensor chip optically.

Data set [4] in a line: PGE2-biotinamide ELISA (PGE2 binding). The settings on record: PGE2 VD in C-terminal position, read-out: Direct Bind ELISA C-terminal VD EC50. As to the method:
(§1) Enzyme linked immunosorbent assays to screen for anti-PGE2 antibodies or anti-PGE2 containing DVD-Ig molecules that bind prostaglandin E2 were performed as follows. ELISA plates (Costar 3369, Corning, N.Y.) were coated with 50 μl of anti-host Fc IgG (Sigma, St. Louis, Mo.) at 2 μg/ml in PBS (Invitrogen Carlsbad, Calif.). Following an overnight incubation at 4° C., the plate was blocked with 200 μl Superblock (Pierce #37535, Rockford, Ill.). The IgG or DVD-Ig containing samples were diluted to 1 μg/ml in Assay Buffer (10% Superblock in PBS containing 0.05% Surfactamps (Pierce #37535, Rockford, Ill.) and incubated on the plate at 50 μl/well for 1 hour at room temperature. Following the incubation, plates were washed four times with TTBS (Tween-Tris Buffered Solution). For PGE2 binding, PGE2-biotinamide (Cayman Chemicals, Ann Arbor, Mich.) was diluted to 30 nM and serially diluted in Assay Buffer. The titration curve was added to each IgG or DVD-Ig sample at a volume of 50 μl/well and incubated for 1 hour at room temperature. The plates were washed as previously described and 50 μl/well of 1:5000 dilution of streptavidin polyhrp40 (Fitzgerald Industries, Concord, Mass.) in Assay Buffer was added and incubated for 45 minutes at room temperature. A final wash step was performed and the plates were developed using a single step TMB system (Sigma #T8665, St. Louis, Mo.) and 2N H2SO4. Plates were read at 450 nm on a Molecular Devices Spectramax plate reader (Sunnyvale, Calif.). EC50 was determined using GraphPad Prism 5 (GraphPad Software, La Jolla, Calif.) (FIG. 2).
as §1, with “ELISA” for “Enzyme linked immunosorbent assays to screen for anti-PGE2 antibodies or anti-PGE2 containing DVD-Ig molecules that bind prostaglandin E2 were performed as follows. ELISA”, “(Invitrogen,” for “(Invitrogen”, “IgG” for “IgG or DVD-Ig”, “Solution).” for “Solution). For PGE2 binding,”, “Calif.).” for “Calif.) (FIG. 2).”
For orientation: ELISA stands for enzyme-linked immunosorbent assay.

A short description of data set [5]: Size exclusion chromatography, percent monomer of parent antibodies and DVD-Ig constructs. In kind it is physicochemical. The protocol: Antibodies were diluted to 2.5 mg/mL with water and […] is analyzed on a Shimadzu HPLC system using a TSK gel G3000 SWXL column (Tosoh Bioscience, cat#k5539-05k). […] The HPLC system operating conditions are the following: […]

We go through three molecules from US8822645B2, “Prostaglandin E2 dual variable domain immunoglobulins and uses thereof” (AbbVie Inc., priority 2008, dated 2014).

B1: 2B5-hLL-8C11: anti-murine TNFα/anti-PGE2 DVD-Ig, human long linker, SEQ ID 108/109 (antibody)
heavy: QVQLQQSGPELVRPGSSVKISCKASGYTFTKYWLGWVKQRPGHGLEWIGDIYPGYDYTHYNEKFKDKATLTVDTSSSTAYMQLSSLTSEDSAIYYCARSDGSSTYWGQGTLVTVSAASTKGPSVFPLAPEFQLQQSGPELVKPGASVRISCKASGYSFTDYNMNWVKQSNGKSLEWVGVINPNYGSSTYNQKFKGKATLTVDQSSSTAYMQLNSLTSEDSAVYYCARKWGQLGRGFFDVWGTGTTVTVSS
light: DVLMTQTPLSLPVSLGDQASISCTSSQNIVHSNGNTYLEWYLQRPGQSPKLLIYKVSNRFSGVPDRFSGSGSGTVFTLKISRVEAEDLGVYYCFQVSHVPYTFGGGTKLEIKRTVAAPSVFIFPPQIVLSQSPAILSASPGEKVTMTCRASSSVSYMHWFQQKPGSSPKPWIYATSNLASGVPARFSGSGSGTSYSLTISRVEAEDAATYYCQQWSSSPLTFGAGTKLELKR
As for B1, binding in data set [1] was characterised by a dissociation constant (Kd) of 0.383 nM. For the same molecule, the IC50 (as a rule, the midpoint of a concentration-inhibition curve) in data set [2] is 0.064 nM.

B2: 2B5-hSL-8C11: anti-murine TNFα/anti-PGE2 DVD-Ig, human short linker, SEQ ID 106/107 (antibody)
heavy: QVQLQQSGPELVRPGSSVKISCKASGYTFTKYWLGWVKQRPGHGLEWIGDIYPGYDYTHYNEKFKDKATLTVDTSSSTAYMQLSSLTSEDSAIYYCARSDGSSTYWGQGTLVTVSAASTKGPEFQLQQSGPELVKPGASVRISCKASGYSFTDYNMNWVKQSNGKSLEWVGVINPNYGSSTYNQKFKGKATLTVDQSSSTAYMQLNSLTSEDSAVYYCARKWGQLGRGFFDVWGTGTTVTVSS
light: DVLMTQTPLSLPVSLGDQASISCTSSQNIVHSNGNTYLEWYLQRPGQSPKLLIYKVSNRFSGVPDRFSGSGSGTVFTLKISRVEAEDLGVYYCFQVSHVPYTFGGGTKLEIKRTVAAPQIVLSQSPAILSASPGEKVTMTCRASSSVSYMHWFQQKPGSSPKPWIYATSNLASGVPARFSGSGSGTSYSLTISRVEAEDAATYYCQQWSSSPLTFGAGTKLELKR
For the molecule B2, the Kd (usually the constant that tells how readily two partners part at equilibrium) in data set [1] came out at 0.238 nM. In data set [2], this molecule returned a 50% inhibitory concentration (IC50) of 0.02 nM.

B3: DVD154: DVD-Ig construct listed in Table 4 (antibody)
VH: EVQLVQSGAEVKKPGESLKISCKVSGYFFTTYWIGWVRQMPGKGLEYMGIIYPGDSDTRYSPSFQGQVTISADKSISTAYLQWSSLKASDTAMYYCARGGNWNCFDYWGQGTLVTVSSASTKGPEVQLVQSGAEVKKPGASVKVSCKASGYTFTKYWLGWVRQAPGQGLEWMGDIYPGYDYTHYNEKFKDRVTLTTDTSTSTAYMELRSLRSDDTAVYYCARSDGSSTYWGQGTLVTVSS
VL: EIVLTQSPGTLSLSPGERATLSCRASQSVSSSYLAWYQQKPGQAPRLLIYGASRRATGIPDRFSGSGSGTDFTLTISRLEPEDFAVYYCQRYGSSHTFGQGTKLEISRTVAAPDVLMTQTPLSLPVTPGEPASISCTSSQNIVHSNGNTYLEWYLQKPGQSPQLLIYKVSNRFSGVPDRFSGSGSGTDFTLKISRVEAEDVGVYYCFQVSHVPYTFGGGTKVEIKR
In the case of B3, the EC50 (as a rule, the concentration that produces a half-maximal response) came out at 0.029 nM in data set [2] (PGE2 VD in C-terminal position, EP4 bioassay, Ca++ flux, read-out: C-terminal VD PGE2 Neutralization EC50) and 1.54 nM in data set [4]. Also, the off-rate constant (koff) (in general, the first-order rate constant of dissociation) in data set [3] is 0.00198 s⁻¹. For the same molecule, in data set [5], the “% Monomer (purity)” value turned out to be 88.7%.
